The results in this text go back to the supplement of paper PMC7877785.

This data set is described as follows: self-splicing fitness, log relative to wild type (ln ratio); higher = more splicing; Tetrahymena group I intron in knt gene, E. coli kanamycin selection, DiMSum; sequences stand for … in CUCUCU…GGAGGGAAAAGUUAUCAGGCAUGCACCUGGUAGCUAGUCUUUAAACCAAUAGAUUGCAUCGGUUUAAAAGGCAAGACCGUCAAAUUGCGGGAAAGGGGUCAACAGCCGUUCAGUACCAAGUCUCAGGGGAAACUUUGAGAUGGCCUUGCAAAGGGUAUGGUAAUAAGCUGACGGACAUGGUCCUAACCACGCAGCCAAGUCCUAAGUCAACAGAUCUUCUGUUGAUAUGGAUGCAGUUCACAGACUAAAUGUCGGUCGGGGAAGAUGUAUUCUUCUCAUAAGAUAUAGUCGGACCUCUCCUUAAUGGGAGCUAGCGGAUGAAGUGAUGCAACACUGGAGCCGCUGGGAACUAAUUUGUAUGCGAAAGUAUAUUGAUUAGUUUUGGAGUACUCGUGGUCG
In short, it runs like this: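 Pooled colonies went to amplicon sequencing on an Illumina HiSeq 2500 after six replicate transformations. The plates were LB agar with 100 μg/mL carbenicillin, 50 μM IPTG and 0.2% rhamnose, with or without 25 μg/mL kanamycin, incubated overnight at 37°C or 30°C. The E. coli BL21(DE3) library had all eight P1ex-region intron nucleotides randomised, the intron placed in the knt kanamycin-resistance gene on pET-22b(+). DiMSum fitness is the error-weighted combination of replicate fold changes, kanamycin against none, normalised to wild type.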

± gives the uncertainty stated by the source.

For the sequence GAGAAGCAAUAUUACGCGUA, the “self-splicing fitness (ln)” value was -1.03 ± 0.12 (30 °C) and -1.1 ± 0.13 (37 °C).

On to GCUAAGCAAUAUUACGGUUU, for which the “self-splicing fitness (ln)” value is -0.872 ± 0.069 (30 °C) and -0.522 ± 0.095 (37 °C).

On to UCCGAGCAAUAUUACGGUAU, for which the “self-splicing fitness (ln)” value (30 °C) is -1.95 ± 0.15 and the “self-splicing fitness (ln)” value (37 °C) was -2.41 ± 0.23.

In the case of CGUCAGCAAUAUUACGUGCG, the “self-splicing fitness (ln)” value (30 °C) was -4.56 ± 0.31 and the “self-splicing fitness (ln)” value (37 °C) was -2.21 ± 0.19.

Take CGAUAGCAAUAUUACGGUAG: the “self-splicing fitness (ln)” value (30 °C) was -1.41 ± 0.11 and the “self-splicing fitness (ln)” value (37 °C) is -0.461 ± 0.11.

As to CAGAAGCAAUAUUACGAAGG, the “self-splicing fitness (ln)” value by setting is: (30 °C) -1.23 ± 0.12; (37 °C) -1.1 ± 0.16.

As to AGUCAGCAAUAUUACGUCUG, the “self-splicing fitness (ln)” value (30 °C) was -2.2 ± 0.13 and the “self-splicing fitness (ln)” value (37 °C) is -0.783 ± 0.12.

UAAUAGCAAUAUUACGUUCU: the “self-splicing fitness (ln)” value (30 °C) was -2.47 ± 0.29 and the “self-splicing fitness (ln)” value (37 °C) was -1.9 ± 0.32.

For GCGUAGCAAUAUUACGUCAC, the “self-splicing fitness (ln)” value (37 °C) was -0.245 ± 0.37.

As to ACGCAGCAAUAUUACGGGAU, the “self-splicing fitness (ln)” value reads like this: (30 °C) -2.32 ± 0.079; (37 °C) -1.41 ± 0.089.

As for AUAAAGCAAUAUUACGUCGC, the “self-splicing fitness (ln)” value by setting is: (30 °C) -2.83 ± 0.25; (37 °C) -1.41 ± 0.19.

As to GGGGAGCAAUAUUACGCAGG, the “self-splicing fitness (ln)” value (37 °C) was -2.08 ± 0.46.

In the case of AAUAAGCAAUAUUACGUUAU, the “self-splicing fitness (ln)” value runs as follows: (30 °C) -2.45 ± 0.13; (37 °C) -1.58 ± 0.16.

With AGUGAGCAAUAUUACGACAA, the “self-splicing fitness (ln)” value by setting is: (30 °C) -2.34 ± 0.23; (37 °C) -0.743 ± 0.18.

Consider UUUGAGCAAUAUUACGGAUG, for which the “self-splicing fitness (ln)” value (30 °C) is -2.66 ± 0.21.

As to ACGUAGCAAUAUUACGACUG, the “self-splicing fitness (ln)” value is, setting by setting: (30 °C) -1.78 ± 0.13; (37 °C) -0.836 ± 0.15.

For the sequence GUGCAGCAAUAUUACGUGCU, the “self-splicing fitness (ln)” value is -3.49 ± 0.32 (30 °C) and -2.35 ± 0.35 (37 °C).

As to GGUUAGCAAUAUUACGUAGC, the “self-splicing fitness (ln)” value was -2.18 ± 0.16 (30 °C) and -1.97 ± 0.17 (37 °C).

For the sequence ACAGAGCAAUAUUACGUAUC, the “self-splicing fitness (ln)” value was -4.32 ± 0.29 (30 °C) and -1.46 ± 0.14 (37 °C).

Take GGGGAGCAAUAUUACGUUCG: the “self-splicing fitness (ln)” value runs as follows: (30 °C) -2.01 ± 0.18; (37 °C) -0.941 ± 0.16.

Regarding UACCAGCAAUAUUACGAGCA, the “self-splicing fitness (ln)” value was -0.673 ± 0.066 (30 °C) and 0.225 ± 0.09 (37 °C).

As for CUGCAGCAAUAUUACGGGUU, the “self-splicing fitness (ln)” value was -3.86 ± 0.17 (30 °C) and -2.74 ± 0.14 (37 °C).

With GGCCAGCAAUAUUACGUCUA, the “self-splicing fitness (ln)” value reads like this: (30 °C) -2.43 ± 0.084; (37 °C) -1.29 ± 0.078.

Take UCCUAGCAAUAUUACGUCCU: the “self-splicing fitness (ln)” value reads like this: (30 °C) -3.56 ± 0.15; (37 °C) -1.92 ± 0.14.

Consider GUUAAGCAAUAUUACGCAGU, for which the “self-splicing fitness (ln)” value reads like this: (30 °C) -1.74 ± 0.24; (37 °C) -2.55 ± 0.23.

For CAACAGCAAUAUUACGACGC, the “self-splicing fitness (ln)” value runs as follows: (30 °C) -0.56 ± 0.065; (37 °C) -0.0606 ± 0.085.

Take ACUCAGCAAUAUUACGCAAA: the “self-splicing fitness (ln)” value reads like this: (30 °C) -2.02 ± 0.12; (37 °C) -0.838 ± 0.11.

In the case of CCCAAGCAAUAUUACGAGAA, the “self-splicing fitness (ln)” value is, setting by setting: (30 °C) -3.57 ± 0.33; (37 °C) -2.87 ± 0.28.

For the sequence UAGAAGCAAUAUUACGGCGA, the “self-splicing fitness (ln)” value was 0.119 ± 0.22 (30 °C) and -0.385 ± 0.24 (37 °C).

Consider GCAAAGCAAUAUUACGUCAC, for which the “self-splicing fitness (ln)” value was -3.96 ± 0.23 (30 °C) and -2.56 ± 0.44 (37 °C).

Consider UACGAGCAAUAUUACGUUCA, for which the “self-splicing fitness (ln)” value is, setting by setting: (30 °C) -1.3 ± 0.11; (37 °C) -0.719 ± 0.13.

With GUCCAGCAAUAUUACGAGAC, the “self-splicing fitness (ln)” value (30 °C) was -3.46 ± 0.23 and the “self-splicing fitness (ln)” value (37 °C) is -1.82 ± 0.23.

Turning to AAUUAGCAAUAUUACGAAGG, the “self-splicing fitness (ln)” value was -2.79 ± 0.23 (30 °C) and -1.88 ± 0.35 (37 °C).

As to UUCUAGCAAUAUUACGUUAC, the “self-splicing fitness (ln)” value (30 °C) was -2.41 ± 0.23 and the “self-splicing fitness (ln)” value (37 °C) is -2.42 ± 0.29.

CCGAAGCAAUAUUACGUCUC: the “self-splicing fitness (ln)” value reads like this: (30 °C) -3.9 ± 0.28; (37 °C) -3.47 ± 0.2.

As to GGUCAGCAAUAUUACGGAUG, the “self-splicing fitness (ln)” value is -0.625 ± 0.095 (30 °C) and -0.309 ± 0.097 (37 °C).

Take UUGAAGCAAUAUUACGUAAA: the “self-splicing fitness (ln)” value (30 °C) was -1.42 ± 0.062 and the “self-splicing fitness (ln)” value (37 °C) was -0.368 ± 0.081.

Take UAGUAGCAAUAUUACGAUGA: the “self-splicing fitness (ln)” value runs as follows: (30 °C) -1.59 ± 0.26; (37 °C) -1.7 ± 0.28.

AAGGAGCAAUAUUACGGAGA: the “self-splicing fitness (ln)” value (30 °C) was -3.62 ± 0.31 and the “self-splicing fitness (ln)” value (37 °C) was -2.35 ± 0.27.

UACGAGCAAUAUUACGGCAC: the “self-splicing fitness (ln)” value (37 °C) is -2.53 ± 0.41.

GUCUAGCAAUAUUACGGCUC: the “self-splicing fitness (ln)” value (30 °C) was -0.737 ± 0.086 and the “self-splicing fitness (ln)” value (37 °C) came out at 0.57 ± 0.12.

As to ACCAAGCAAUAUUACGCCUA, the “self-splicing fitness (ln)” value runs as follows: (30 °C) -1.04 ± 0.11; (37 °C) -0.201 ± 0.11.

Consider CUACAGCAAUAUUACGCUAU, for which the “self-splicing fitness (ln)” value was -4.01 ± 0.19 (30 °C) and -2.6 ± 0.18 (37 °C).

For the sequence AGCGAGCAAUAUUACGGAAC, the “self-splicing fitness (ln)” value was -3.53 ± 0.32 (30 °C) and -1.5 ± 0.29 (37 °C).

Turning to CUGAAGCAAUAUUACGUAGA, the “self-splicing fitness (ln)” value (30 °C) is -4.28 ± 0.34 and the “self-splicing fitness (ln)” value (37 °C) was -1.75 ± 0.27.

As for UGUUAGCAAUAUUACGGCCA, the “self-splicing fitness (ln)” value was found to be 0.385 ± 0.17 (30 °C) and 0.166 ± 0.14 (37 °C).

In the case of GUAGAGCAAUAUUACGUAGA, the “self-splicing fitness (ln)” value was -4.79 ± 0.41 (30 °C) and -1.55 ± 0.25 (37 °C).

As for CCGGAGCAAUAUUACGUGAG, the “self-splicing fitness (ln)” value runs as follows: (30 °C) -1.33 ± 0.12; (37 °C) -0.689 ± 0.1.

Regarding GACAAGCAAUAUUACGCAAU, the “self-splicing fitness (ln)” value runs as follows: (30 °C) -3.08 ± 0.15; (37 °C) -1.58 ± 0.12.

Regarding CGUUAGCAAUAUUACGUCGA, the “self-splicing fitness (ln)” value is -2.71 ± 0.19 (30 °C) and -1.16 ± 0.2 (37 °C).

Regarding GGGAAGCAAUAUUACGAUAU, the “self-splicing fitness (ln)” value was -0.722 ± 0.15 (30 °C) and -0.709 ± 0.23 (37 °C).

As for AAUAAGCAAUAUUACGUAAC, the “self-splicing fitness (ln)” value (37 °C) is -1.85 ± 0.25.

GGAUAGCAAUAUUACGCUUG: the “self-splicing fitness (ln)” value (30 °C) is -1.81 ± 0.12 and the “self-splicing fitness (ln)” value (37 °C) was -1.11 ± 0.16.

As to UCUUAGCAAUAUUACGCUGU, the “self-splicing fitness (ln)” value (30 °C) is -3.65 ± 0.37 and the “self-splicing fitness (ln)” value (37 °C) was -1.45 ± 0.26.

UUGUAGCAAUAUUACGGAUC: the “self-splicing fitness (ln)” value by setting is: (30 °C) -3.53 ± 0.3; (37 °C) -2.48 ± 0.26.

As to AUAGAGCAAUAUUACGCUAU, the “self-splicing fitness (ln)” value reads like this: (30 °C) -2.49 ± 0.18; (37 °C) -2.34 ± 0.3.

In the case of UAACAGCAAUAUUACGACAU, the “self-splicing fitness (ln)” value is, setting by setting: (30 °C) -1.139 ± 0.011; (37 °C) -0.372 ± 0.032.

Take GACCAGCAAUAUUACGGGUU: the “self-splicing fitness (ln)” value (30 °C) was -4.24 ± 0.21 and the “self-splicing fitness (ln)” value (37 °C) was -2.53 ± 0.18.

With UGUAAGCAAUAUUACGUCCU, the “self-splicing fitness (ln)” value reads like this: (30 °C) -0.564 ± 0.074; (37 °C) 0.215 ± 0.079.

On to UCGCAGCAAUAUUACGUCUA, for which the “self-splicing fitness (ln)” value (30 °C) was -0.18 ± 0.11 and the “self-splicing fitness (ln)” value (37 °C) amounted to 0.716 ± 0.12.

For the sequence ACCAAGCAAUAUUACGUACC, the “self-splicing fitness (ln)” value reads like this: (30 °C) -1.57 ± 0.17; (37 °C) -1.32 ± 0.17.
